Reference: patent US20160138036A1 (SNU R AND DB FOUNDATION, published 2016)

Key:
[1] = target: T1, SOC1 (SUPPRESSOR OF OVEREXPRESSOR OF CONSTANS 1) transcription factor (Arabidopsis thaliana, UniProt O64645 1-214, 35S-Met label in the pull-down assay (in vitro translated)); experiment: BiFC (split EYFP fusions) in Arabidopsis protoplasts
T1 construct: Full-size MADS box transcription factor; In yeast two-hybrid it was fused to GAL4 AD or BD (pGADT7/pGBKT7); In BiFC it was fused to a half of EYFP; In the pull-down it was in vitro translated from pGADT7 and 35S-labeled; also called Arabidopsis SOC1; At2g45660
Description: (§1) BiFC assays were carried out as described previously (Hong et al., J. Biol. Chem. 286, 1659-1668, 2011). A full-size SOC1 gene was fused in-frame to the 5′ end of a gene sequence encoding the C-terminal half of EYFP in the pSATN-cEYFP-C1 vector (E3082). Truncated SOC1 gene sequences were fused in-frame to the 5′ end of a gene sequence encoding the N-terminal half of EYFP in the pSATN-nEYFP-C1 vector (E3081). The expression constructs were cotransformed into Arabidopsis protoplasts. Expression of the fusion constructs was monitored by fluorescence microscopy using a Zeiss LSM510 confocal microscope (Carl Zeiss MicroImaging GmbH, Jena, Germany). The BdSOC1 gene constructs were prepared similar to the Arabidopsis SOC1 gene constructs and transiently expressed in Brachypodium protoplasts.

[2] = target: T2, BdSOC1 (Brachypodium distachyon SUPPRESSOR OF OVEREXPRESSOR OF CONSTANS 1) transcription factor (Brachypodium distachyon, 35S-Met label in the pull-down assay (in vitro translated)); experiment: BiFC (split YFP fusions) in Brachypodium protoplasts
T2 construct: Fused to an EYFP half in BiFC; In vitro translated and 35S-labeled in the pull-down; also called Bradi1g77020; Brachypodium SOC1
Description: (a) in vitro pull-down assays. The BdSOC1 protein was prepared as recombinant BdSOC1-MBP fusion in E. coli cells. The ³⁵S-labeled BdSOC1 polypeptides were prepared by in vitro translation. Part of Coomassie-stained gel is shown (bottom panel). (b) BiFC assays. Partial YFP fusion constructs were transiently expressed in Brachypodium protoplasts. Scale bars=10 μm.
as §1

T1 sequence (O64645 whole entry, the tested form may be a part): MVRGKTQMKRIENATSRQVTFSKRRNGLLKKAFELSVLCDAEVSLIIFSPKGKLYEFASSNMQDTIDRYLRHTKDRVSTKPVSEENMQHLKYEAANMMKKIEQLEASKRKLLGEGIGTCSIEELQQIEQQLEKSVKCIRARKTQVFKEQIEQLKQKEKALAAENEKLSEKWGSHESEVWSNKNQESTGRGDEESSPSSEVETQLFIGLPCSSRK
T2 sequence (chain, as listed by the source limits assumed): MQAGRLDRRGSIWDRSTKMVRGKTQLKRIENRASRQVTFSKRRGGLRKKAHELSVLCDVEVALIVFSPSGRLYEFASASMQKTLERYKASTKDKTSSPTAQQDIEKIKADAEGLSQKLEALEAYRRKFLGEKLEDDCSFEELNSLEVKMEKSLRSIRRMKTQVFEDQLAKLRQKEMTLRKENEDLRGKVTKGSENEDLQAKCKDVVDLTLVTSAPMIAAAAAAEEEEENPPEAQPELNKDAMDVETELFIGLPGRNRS

Binder | binding result [1] | binding result [2]
S-K truncated SOC1 form (35S-Met label in the pull-down assay (in vitro translated), It was fused to GAL4 domain or EYFP half in yeast and BiFC assays; also called S-K form; SOC1 a-siPEP) VSEENMQHLKYEAANMMKKIEQLEASKRKLLGEGIGTCSIEELQQIEQQLEKSVKCIRARKTQVFKEQIEQLKQKEKALAAENEKLSEK | binds | 
S-IK truncated SOC1 form (35S-Met label in the pull-down assay (in vitro translated), It was fused to GAL4 domain or EYFP half in yeast and BiFC assays; also called SOC1 a-siPEP) KKAFELSVLCDAEVSLIIFSPKGKLYEFASSNMQDTIDRYLRHTKDRVSTKPVSEENMQHLKYEAANMMKKIEQLEASKRKLLGEGIGTCSIEELQQIEQQLEKSVKCIRARKTQVFKEQIEQLKQKEKALAAENEKLSEK | binds | 
BdS-K truncated BdSOC1 form (35S-Met label in the pull-down assay (in vitro translated), An artificial start codon was added) TAQQDIEKIKADAEGLSQKLEALEAYRRKFLGEKLEDDCSFEELNSLEVKMEKSLRSIRRMKTQVFEDQLAKLRQKEMTLRKENEDLRGK |  | binds
BdS-IK truncated BdSOC1 form (35S-Met label in the pull-down assay (in vitro translated), An artificial start codon was added; also called BdS-MK2 (primer name)) KAHELSVLCDVEVALIVFSPSGRLYEFASASMQKTLERYKASTKDKTSSPTAQQDIEKIKADAEGLSQKLEALEAYRRKFLGEKLEDDCSFEELNSLEVKMEKSLRSIRRMKTQVFEDQLAKLRQKEMTLRKENEDLRGK |  | binds
